One assay has as its target T1, hTyro 3-ECD.
T1 construct: not the His-Strep tagged ECD m13; also called Recombinant Human Dtk-Fc Chimera (R&D Systems 859-DK-100); not shown: Human Fc, and any linker, of the commercial chimera (R&D Systems 859-DK-100)
T1 chain: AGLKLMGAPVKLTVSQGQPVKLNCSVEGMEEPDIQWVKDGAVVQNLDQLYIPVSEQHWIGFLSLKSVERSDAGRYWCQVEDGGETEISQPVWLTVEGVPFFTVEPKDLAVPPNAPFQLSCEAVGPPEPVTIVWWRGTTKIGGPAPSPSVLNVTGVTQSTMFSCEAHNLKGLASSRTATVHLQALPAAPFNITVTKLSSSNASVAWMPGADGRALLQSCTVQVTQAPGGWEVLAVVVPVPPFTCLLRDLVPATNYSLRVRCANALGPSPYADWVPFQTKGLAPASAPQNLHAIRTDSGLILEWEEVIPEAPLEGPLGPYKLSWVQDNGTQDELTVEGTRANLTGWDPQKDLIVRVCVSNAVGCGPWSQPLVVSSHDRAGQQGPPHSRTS
In words: ELISA, ECD coated 1 µg/well, scFv 1 µg/mL, anti-tag-HRP. As for the experimental part:
(§1) Extracellular domains of hTyro 3 (859-DK-100), hAxl (154-AL-100) or hMer (891-MR-100) from R&D Systems were coated onto 96-wells microtiter plates (1 μg/well) in PBS and incubated overnight at 4° C. Plates were washed three times with PBS and blocked in PBS/3% BSA for 1 hour at RT. Plates were washed as above and scFvs were added at 1 μg/mL (diluted in PBS) and incubated for 1 hour at RT. Plates were washed three times with PBST (PBS/0.01% Tween-20) and secondary antibody anti-FLAG-HRP was added (Abcam, ab49763, 1/5000 dilution in blocking buffer) for 1 hour at RT. Plates were washed as above with PBST and signal was developed with Ultra-TMB reagent (Thermo Scientific, 34028).
Background: In an ELISA, binding on a coated surface is turned into a signal by an enzyme label.

For assay [1], the target named is T2, extracellular domain of human Axl, Fc fusion (R&D Systems 154-AL-100) (human, UniProt P30530 26-451).
T2 construct: Bought protein; also called hAxl; hAXL; not shown: Fc of the bought ECD-Fc fusion
T2 sequence: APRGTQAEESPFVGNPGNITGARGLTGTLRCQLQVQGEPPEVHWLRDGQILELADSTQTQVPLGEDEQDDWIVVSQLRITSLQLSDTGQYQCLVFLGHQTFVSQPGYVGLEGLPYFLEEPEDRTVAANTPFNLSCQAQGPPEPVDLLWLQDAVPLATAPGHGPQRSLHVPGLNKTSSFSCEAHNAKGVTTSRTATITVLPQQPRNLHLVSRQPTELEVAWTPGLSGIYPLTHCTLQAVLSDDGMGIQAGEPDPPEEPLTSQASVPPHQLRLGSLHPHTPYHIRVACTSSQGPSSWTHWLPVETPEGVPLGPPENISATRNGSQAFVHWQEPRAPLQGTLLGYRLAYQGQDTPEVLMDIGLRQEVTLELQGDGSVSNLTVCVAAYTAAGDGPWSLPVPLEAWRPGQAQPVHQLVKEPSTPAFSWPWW
The assay is described as above. As for the experimental part:
as §1

Assay [2] addresses T3, extracellular domain of human Mer, Fc fusion (R&D Systems 891-MR-100) (human, UniProt Q12866 21-505).
T3 construct: Bought protein; also called hMer; hMER; not shown: Fc of the bought ECD-Fc fusion
T3 sequence: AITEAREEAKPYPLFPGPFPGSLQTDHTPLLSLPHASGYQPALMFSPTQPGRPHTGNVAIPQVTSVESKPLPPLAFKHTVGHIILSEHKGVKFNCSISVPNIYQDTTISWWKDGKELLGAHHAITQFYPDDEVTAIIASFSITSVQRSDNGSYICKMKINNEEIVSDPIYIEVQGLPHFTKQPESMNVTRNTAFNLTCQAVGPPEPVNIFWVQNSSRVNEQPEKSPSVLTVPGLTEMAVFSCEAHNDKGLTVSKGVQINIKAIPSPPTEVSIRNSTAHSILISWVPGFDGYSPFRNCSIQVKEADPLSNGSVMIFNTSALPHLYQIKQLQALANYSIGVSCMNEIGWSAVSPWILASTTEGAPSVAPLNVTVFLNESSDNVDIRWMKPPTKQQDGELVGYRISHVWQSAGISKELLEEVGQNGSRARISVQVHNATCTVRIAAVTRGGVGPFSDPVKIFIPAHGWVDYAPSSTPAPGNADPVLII
The assay is described as above. As for the experimental part: as §1

The next assay concerns the target T4, Tyro3 ECD Ig2-FNIII 1.
T4 construct: also called Ig2 + FNIII 1 fragment of hTyro3 ECD, His-Strep tagged
T4 fragment: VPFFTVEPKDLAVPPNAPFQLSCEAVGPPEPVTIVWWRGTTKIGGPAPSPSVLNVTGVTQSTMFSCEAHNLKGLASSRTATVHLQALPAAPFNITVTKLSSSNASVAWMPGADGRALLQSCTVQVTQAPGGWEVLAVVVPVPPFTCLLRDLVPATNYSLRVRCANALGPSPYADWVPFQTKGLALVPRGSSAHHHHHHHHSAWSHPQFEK
The assay is described as follows: sandwich ELISA, Strep-tagged fragment captured on StrepMAB plate, scFv 10 µg/mL (Table 17), anti-FLAG-HRP.

For assay [3], the target named is T5, Tyro3 ECD FNIII 1-FNIII-2.
T5 construct: also called FNIII 1 + FNIII 2 fragment of hTyro3 ECD, His-Strep tagged
T5 fragment: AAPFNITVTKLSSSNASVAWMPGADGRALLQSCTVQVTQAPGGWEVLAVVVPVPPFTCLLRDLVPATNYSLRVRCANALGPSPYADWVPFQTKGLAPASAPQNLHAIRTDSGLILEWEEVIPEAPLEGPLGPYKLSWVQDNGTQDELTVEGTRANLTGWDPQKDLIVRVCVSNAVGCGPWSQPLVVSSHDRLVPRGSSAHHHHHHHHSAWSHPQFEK
The assay is described as above.

In assay [4] the target is T6, Ig-1 domain fragment of human Tyro3 ECD, His-Strep tagged (human).
T6 chain: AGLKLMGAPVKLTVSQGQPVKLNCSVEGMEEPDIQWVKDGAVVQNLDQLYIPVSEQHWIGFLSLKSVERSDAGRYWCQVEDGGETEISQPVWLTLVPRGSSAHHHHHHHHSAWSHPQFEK
Described as above.

The target of assay [5] is T7, Ig-1 and Ig-2 domains fragment of human Tyro3 ECD, His-Strep tagged (human).
T7 construct: also called Ig1-Ig2 fragment
T7 chain: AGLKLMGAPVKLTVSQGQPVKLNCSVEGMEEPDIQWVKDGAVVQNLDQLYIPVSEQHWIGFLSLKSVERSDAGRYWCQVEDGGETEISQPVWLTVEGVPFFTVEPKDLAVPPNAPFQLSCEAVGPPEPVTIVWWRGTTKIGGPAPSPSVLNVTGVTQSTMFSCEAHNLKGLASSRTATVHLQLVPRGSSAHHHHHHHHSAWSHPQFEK
Described as above.

B1: anti-Tyro3 scFv 2413 (scFv, V domains shown)
VH: EVQLVQSGADVKKPGASLTISCQASGYTFTDYWISWVRQKPGKGLEWMGRIHTYQSSTRYGPSFQGHVTISADRSTATAYLQWRSLEASDTAMYYCVRHHSTTTANPYSSWGPGTLVTVSS
VL: SYELTQPPSVSVSPGQTARITCSGDALPKKYAYWYQQKSGQAPVLVIYEDDKRLSGIPERFSGSSSGTMATLTISGAQVEDEADYYCYSTEINGNYAVFGGGTKLTVL
notes: Tested as a single-chain Fv made in E. coli
Turning to B1, the binding result in the assay with hTyro 3-ECD is “binds”; in assay [1], “no binding (tested: 1 µg/mL)”; in assay [2] it was “no binding (tested: 1 µg/mL)”; with Tyro3 ECD Ig2-FNIII 1, “binds”; in assay [3], “no binding (tested: 10 µg/mL)”; in assay [4], “binds”. In addition, the binding result in assay [5] is “binds”.

B2: anti-Tyro3 scFv 2718 (scFv, V domains shown)
VH: EVQLVQSGADVKKPGASLTISCQASGYTFTDYWISWVRQKPGKGLEWMGHINPMRSTTTYGPSFQGHVTISADRSTATAYLQWHSLEASDTAMYYCVRNDNHDDYTYTDDWGPGTLVTVSS
VL: SYELTQPPSVSVSPGQTARITCSGDALPKKYAYWYQQKSGQAPVLVIYEDTKRHSGIPERFSGSSSGTMATLTISGAQVEDEADYYCYSAEHRGNYAVFGGGTKLTVL
notes: as for B1
Regarding B2, the binding result is “binds” with hTyro 3-ECD; “no binding (tested: 1 µg/mL)” in assay [1]; “no binding (tested: 1 µg/mL)” in assay [2]; “binds” with Tyro3 ECD Ig2-FNIII 1; “binds” in assay [3]; “no binding (tested: 10 µg/mL)” in assay [4]. In addition, in assay [5], the binding result is “no binding (tested: 10 µg/mL)”.

B3: anti-Tyro3 scFv 2411 (scFv, V domains shown)
VH: EVQLVQSGADVKKPGASLTISCQASGYTFTDYWISWVRQKPGKGLEWMGSITRSSSRTHYGPSFQGHVTISADRSTATAYLQWRSLEASDTAMYYCVRGYTHLRTWGPGTLVTVSS
VL: SYELTQPPSVSVSPGQTARITCSGDALPKKYAYWYQQKSGQAPVLVIYEDSKRSSGIPERFSGSSSGTMATLTISGAQVEDEADYYCYSANQRGNYMVFGGGTKLTVL
notes: as for B1
For B3, the binding result is “binds” with hTyro 3-ECD; “no binding (tested: 1 µg/mL)” in assay [1]; “no binding (tested: 1 µg/mL)” in assay [2]; “binds” with Tyro3 ECD Ig2-FNIII 1; “no binding (tested: 10 µg/mL)” in assay [3]; “binds” in assay [4]. For the same molecule, the binding result in assay [5] was “binds”.

(Values after US20180105596A1 (ELSALYS BIOTECH, published 2018).)
